Source: patent US20220348970A1, “METHODS AND COMPOSITIONS FOR 3-HYDROXYPROPIONATE PRODUCTION” (The Regents of the University of California, priority 2017, published 2022)

Legend:
[1] = biological target: Actinobacillus succinogenes PCK (phosphoenolpyruvate carboxykinase), SEQ ID NO: 163 (Actinobacillus succinogenes, UniProt A6VKV4); test: Kinetics of PEPCK against PEP (carboxylation direction, malate dehydrogenase/NADH coupled); type: biochemical; settings: 100 mM PBS buffer (pH 6.5), 1.25 mM ADP, 50 mM KHCO3, 2 mM MnCl2
Sequence of Actinobacillus succinogenes PCK (phosphoenolpyruvate carboxykinase), SEQ ID NO: 163 (A6VKV4 whole entry): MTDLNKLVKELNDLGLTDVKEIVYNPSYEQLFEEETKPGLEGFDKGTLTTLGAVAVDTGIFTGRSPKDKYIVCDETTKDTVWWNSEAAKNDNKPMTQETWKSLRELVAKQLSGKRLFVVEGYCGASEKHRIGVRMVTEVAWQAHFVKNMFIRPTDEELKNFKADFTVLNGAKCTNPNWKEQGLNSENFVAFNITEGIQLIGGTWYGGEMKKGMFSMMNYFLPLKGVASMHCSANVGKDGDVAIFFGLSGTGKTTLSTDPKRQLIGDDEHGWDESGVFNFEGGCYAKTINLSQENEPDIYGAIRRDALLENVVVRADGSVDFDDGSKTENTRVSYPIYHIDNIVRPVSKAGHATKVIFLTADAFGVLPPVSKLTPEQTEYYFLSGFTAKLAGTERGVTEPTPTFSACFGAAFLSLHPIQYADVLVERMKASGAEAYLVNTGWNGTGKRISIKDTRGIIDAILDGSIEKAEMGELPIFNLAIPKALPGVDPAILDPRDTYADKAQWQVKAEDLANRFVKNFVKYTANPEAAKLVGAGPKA
Protocol: (§1) 5 genes encoding candidate PEPCKs were synthesized and cloned into expression vectors. After obtaining solubly expressed proteins, they were used for activity characterization. Each enzyme was assayed in the phosphenolpyruvate carboxylation direction in a solution containing 100 mM PBS buffer (pH 6.5), 0.20 mM NADH, 1.25 mM ADP, 2.5 mM PEP, 50 mM KHCO3, 2 mM MnCl2, and 4 units malate dehydrogenase.

[2] = substrate: NC(=O)c1ccc[n+]([C@@H]2O[C@H](COP(=O)([O-])OP(=O)(O)OC[C@H]3O[C@@H](n4cnc5c(N)ncnc54)[C@H](O)[C@@H]3O)[C@@H](O)[C@H]2O)c1; test: 3-HPDH activity towards 3-HP (reverse reaction) using NAD+; type: biochemical, Metallosphaera sedula; settings: other: activity towards 3-HP, pH 7.2, 21° C.
Protocol: (§2) Candidate ADHs were expressed in E. coli, and soluble expression levels were analyzed. 3-HP dehydrogenase (3-HPDH) activity of each was tested based on the reverse reaction, from 3-HP to 3-oxopropanoate. The assay was performed in a 96-well half-area plate. Each reaction contained a final concentration of 1 mM NADP^+/NAD^+ in reaction buffer (100 mM Hepes, 100 mM NaCl, 10% glycerol, pH 7.2) and ADHs. A range of substrates from 0.1 mM-5 mM was used to perform steady-state kinetics measurement over a period of an hour. Absorbance readings were taken every 1 min at OD 340 at 21° C. for 60 min. using the Synergy™ H1 Hybrid Multi-Mode Microplate Reader (Biotek). Kinetic parameters (kcat and KM) were determined by fitting initial velocity versus substrate concentration data to the Michaelis-Menten equation.

[3] = substrate: O=C(O)CC(=O)C(=O)O; test: OAADC kinetics of 5EUJ on oxaloacetate; type: biochemical; settings: other: oxaloacetate, pH 7.2, 21° C.
Protocol: (§3) All substrates were dissolved in MilliQ H2O and the pH was adjusted to 7.2 as necessary. Activity for oxaloacetate, pyruvate, and 2-ketoisovalerate was measured at a 1 mM substrate concentration. The assay was performed in a 96-well half-area plate. Each reaction contained reaction buffer (100 mM HEPES, 100 mM NaCl, 10% glycerol, pH 7.2), ADH (Sigma-Aldrich, A7011, 100 U/mL for pyruvate, 600 U/mL for oxaloacetate, and 600 U/mL for 2-ketoisovalerate), and a final concentration of 0.5 mM NADPH, 0.1 mM TPP, and 1 mM MgSO4. A range of substrate concentrations (0.1 mM-5 mM) were uSEQ to perform steady-state kinetics measurement over a period of one hour. Absorbance readings were taken at one minute intervals at 340 nm at 21° C. for 60 minutes using the Synergy H1 spectrophotometer (Biotek). Kinetic parameters (ka and Ks1) were determined by fitting initial velocity versus substrate concentration data to the Michaelis-Menten equation.
(§4) A second round of genome mining was conducted as described in Example 1, except using the 4COK sequence as the input. Genes encoding candidate OAADCs were synthesized and expressed in E. coli for further characterization. OAADC activity was assayed as described in Example 1.

[4] = substrate: C=C(OP(=O)(O)O)C(=O)O; test: Kinetics of PEPCK against PEP (carboxylation direction, malate dehydrogenase/NADH coupled); type: biochemical, E. coli; settings: other: PEP, 100 mM PBS buffer (pH 6.5), 1.25 mM ADP, 50 mM KHCO3, 2 mM MnCl2
Protocol: as §1

[5] = substrate: O=C(O)CC(=O)C(=O)O; test: OAADC kinetics of A0A0J7KM68 on oxaloacetate; type: biochemical; settings: other: oxaloacetate, pH 7.2, 21° C.
Protocol: as §3, §4

[6] = substrate: CC(=O)C(=O)O; test: Steady-state kinetics of 4COK decarboxylase on pyruvate and oxaloacetate (ADH/NADPH coupled, 340 nm); type: biochemical, Gluconacetobacter diazotrophicus; settings: other: pH 7.2, 21° C., 0.1 mM-5 mM substrate
Protocol: Overnight cultures of BLR cells suspended in a 2 mL volume were transformed with a pet29b+ plasmid (encoding polypeptides of interest with a C-terminal His-tag) and grown in Terrific Broth with 50 μg/ml kanamycin. Cultures were diluted 1:1.000 in 500 ml of Terrific Broth with 1 mM MgSO4, 1% glucose and 50 μg/ml antibiotic and then grown at 37° C. for 24 hours. Cultures were pelleted down at 4,700 RPM for 10 minutes and resuspended in auto-induction media (LB broth, 1 mM MgSO4, 0.1 mM TPP, 1×NPS and 1×5052) for induction at 18° C. for 20 hours. At the end of induction, cells were centrifuged, the supernatant was removed and cells were resuspended in 40 mL lysis buffer (100 mM HEPES, pH 7.5, 100 mM NaCl, 10% glycerol, 0.1 mM TPP, 1 mM MgSO4, 10 mM Imidazole, 1 mM TCEP) and 1 mM phenylmethylsulphonyl fluoride. The cell lysate suspension was sonicated for 2 min and followed by centrifugation at 4,700 RPM. The supernatant was loaded onto a gravity flow column with 500 uL Cobalt beads and was washed with 15 mL of wash buffer five times. Proteins were eluted with […] of elution buffer (100 mM HEPES, pH 7.5, 100 mM NaCl, 10% glycerol, 0.1 mM TPP, 1 mM MgSO4, 200 mM Imidazole and 1 mM TCEP). Protein concentrations were determined using a Synergy H1 spectrophotometer (Biotek) by measuring absorbance at 280 nm using calculated extinction coefficients.
All substrates were dissolved in MilliQ H2O and the pH was adjusted to 7.2 as necessary. Activity for oxaloacetate, pyruvate, and 2-ketoisovalerate was measured at a 1 mM substrate concentration. The assay was performed in a 96-well half-area plate. […] Absorbance readings were taken at one minute intervals at 340 nm at 21° C. for 60 minutes using the Synergy H1 spectrophotometer (Biotek). Kinetic parameters (ka and Ks1) were determined by fitting initial velocity versus substrate concentration data to the Michaelis-Menten equation. […]

[7] = substrate: NC(=O)c1ccc[n+]([C@@H]2O[C@H](COP(=O)([O-])OP(=O)(O)OC[C@H]3O[C@@H](n4cnc5c(N)ncnc54)[C@H](O)[C@@H]3O)[C@@H](O)[C@H]2O)c1; test: 3-HPDH activity towards 3-HP (reverse reaction) using NAD+; type: biochemical; settings: other: activity towards 3-HP, pH 7.2, 21° C.
Protocol: as §2

## C=C(OP(=O)(O)O)C(=O)O [PEP, phosphoenolpyruvate]
[1]
  Km: 169 µM
  kcat: 2.875 s⁻¹

B1: 3-HPDH A4YI81, SEQ ID NO: 154 (Metallosphaera sedula DSM 5348) (protein)
chain: MTEKVSVVGAGVIGVGWATLFASKGYSVSLYTEKKETLDKGIEKLRNYVQVMKNNSQITEDVNTVISRVSPTTNLDEAVRGANFVIEAVIEDYDAKKKIFGYLDSVLDKEVILASSTSGLLITEVQKAMSKHPERAVIAHPWNPPHLLPLVEIVPGEKTSMEVVERTKSLMEKLDRIVVVLKKEIPGFIGNRLAFALFREAVYLVDEGVATVEDIDKVMTAAIGLRWAFMGPFLTYHLGGGEGGLEYFFNRGFGYGANEWMHTLAKYDKFPYTGVTKAIQQMKEYSFIKGKTFQEISKWRDEKLLKVYKLVWEK
notes: UniProt strain ATCC 51363 / DSM 5348 / TH2
[2]
  Km: 0.65 mM

B2: OAADC 5EUJ, SEQ ID NO: 146 (Zymobacter palmae) (protein)
chain: MYTVGMYLAERLAQIGLKHHFAVAGDYNLVLLDQLLLNKDMEQVYCCNELNCGFSAEGYARARGAAAAIVTFSVGAISAMNAIGGAYAENLPVILISGSPNTNDYGTGHILHHTIGTTDYNYQLEMVKHVTCAAESIVSAEEAPAKIDHVIRTALRERKPAYLEIACNVAGAECVRPGPINSLLRELEVDQTSVTAAVDAAVEWLQDRQNVVMLVGSKLRAAAAEKQAVALADRLGCAVTIMAAAKGFFPEDHPNFRGLYWGEVSSEGAQELVENADAILCLAPVFNDYATVGWNSWPKGDNVMVMDTDRVTFAGQSFEGLSLSTFAAALAEKAPSRPATTQGTQAPVLGIEAAEPNAPLTNDEMTRQIQSLITSDTTLTAETGDSWFNASRMPIPGGARVELEMQWGHIGWSVPSAFGNAVGSPERRHIMMVGDGSFQLTAQEVAQMIRYEIPVIIFLINNRGYVIEIAIHDGPYNYIKNWNYAGLIDVFNDEDGHGLGLKASTGAELEGAIKKALDNRRGPTLIECNIAQDDCTETLIAWGKRVAATNSRKPQAGGSG
[3]
  Km: 6.667 mM
  kcat: 28.8 s⁻¹
  kcat/Km: 4320 ± 321 M⁻¹ s⁻¹

B3: E. coli PCK (phosphoenolpyruvate carboxykinase, PCKA_Ecoli), SEQ ID NO: 162 (Escherichia coli K-12) (protein)
chain: MRVNNGLTPQELEAYGISDVHDIVYNPSYDLLYQEELDPSLTGYERGVLTNLGAVAVDTGIFTGRSPKDKYIVRDDTTRDTFWWADKGKGKNDNKPLSPETWQHLKGLVTRQLSGKRLFVVDAFCGANPDTRLSVRFITEVAWQAHFVKNMFIRPSDEELAGFKPDFIVMNGAKCTNPQWKEQGLNSENFVAFNLTERMQLIGGTWYGGEMKKGMFSMMNYLLPLKGIASMHCSANVGEKGDVAVFFGLSGTGKTTLSTDPKRRLIGDDEHGWDDDGVFNFEGGCYAKTIKLSKEAEPEIYNAIRRDALLENVTVREDGTIDFDDGSKTENTRVSYPIYHIDNIVKPVSKAGHATKVIFLTADAFGVLPPVSRLTADQTQYHFLSGFTAKLAGTERGITEPTPTFSACFGAAFLSLHPTQYAEVLVKRMQAAGAQAYLVNTGWNGTGKRISIKDTRAIIDAILNGSLDNAETFTLPMFNLAIPTELPGVDTKILDPRNTYASPEQWQEKAETLAKLFIDNFDKYTDTPAGAALVAAGPKL
[4]
  Km: 0.1905 mM
  kcat: 3.42 s⁻¹
  kcat/Km: 18000 M⁻¹ s⁻¹

B4: OAADC A0A0J7KM68_LASNI, SEQ ID NO: 145 (Lasius niger) (protein)
chain: MSYTVGQYLADRLVQIGLKDHFAIAGDYNLVLLDQFLKNKNWNQIYDCNELNCGFAAEGYARANGAAACVVTYTVGAISAMNSALAGAYAENLPVLCISGAPNCNDYGSGRILHHTIGKPEFTQQLDMVKHVTCAAESVVQASEAPAKIDHVIRTMLLEQRPAYIDIACNISGLECPRPGPIEDLLPQYAADNKSLTSAIDAIAKKIEASQKVTLYVGPKVRPGKAKEASVKLADALGCAVTVGPASMSFFPAKHPGFRGTYWGIVSTGDANKVVEEAETLIVLGPNWNDYATVGWKAWPKGPRVVTIDEKAAQVDGQVFSGLSMKALVEGLAKKVSKKPATAEGTKAPHFEYPVAKPDAKLTNAEMARQINAILDDNTTLHAETGDSWFNVKNMNWPNGLRIESEMQYGHIGWSIPSGFGGAIGSPERKHIIMCGDGSFQLTCQEVSQMIRYKLPVTIFLIDNHGYGIEIAIHDGPYNYIQNWNFTKLMEVFNGEGEECPYSHNKNGKSGLGLKATTPAELADAIKQAEANKEGPTLIQVVIDQDDCTKDLLTWGKEVAKTNARSPVVTDKAGGSG
[5]
  Km: 2.389 mM
  kcat: 6.25 s⁻¹
  kcat/Km: 2620 ± 224 M⁻¹ s⁻¹

B5: pyruvate decarboxylase from Gluconacetobacter diazotrophicus (4COK), SEQ ID NO: 1 (Gluconacetobacter diazotrophicus PA1 5) (protein)
chain: MTYTVGRYLADRLAQIGLKHHFAVAGDYNLVLLDQLLLNTDMQQIYCSNELNCGFSAEGYARANGAAAAIVTFSVGALSAFNALGGAYAENLPVILISGAPNANDHGTGHILHHTLGTTDYGYQLEMARHITCAAESIVAAEDAPAKIDHVIRTALREKKPAYLEIACNVAGAPCVRPGGIDALLSPPAPDEASLKAAVDAALAFIEQRGSVTMLVGSRIRAAGAQAQAVALADALGCAVTTMAAAKSFFPEDHPGYRGHYWGEVSSPGAQQAVEGADGVICLAPVFNDYATVGWSAWPKGDNVMLVERHAVTVGGVAYAGIDMRDFLTRLAAHTVRRDATARGGAYVTPQTPAAAPTAPLNNAEMARQIGALLTPRTTLTAETGDSWFNAVRMKLPHGARVELEMQWGHIGWSVPAAFGNALAAPERQHVLMVGDGSFQLTAQEVAQMIRHDLPVIIFLINNHGYTIEVMIHDGPYNNVKNWDYAGLMEVFNAGEGNGLGLRARTGGELAAAIEQARANRNGPTLIECTLDRDDCTQELVTWGKRVAAANARPPRAG
notes: likely strain PAl 5 (ATCC 49037 / DSM 5601)
[6]
  Km: 1.49 ± 0.43 mM
  kcat: 8.25 ± 1.87 s⁻¹
  kcat/Km: 5532 ± 39.4 M⁻¹ s⁻¹

B6: 3-HPDH 2CVZ, SEQ ID NO: 159 (Thermus thermophilus HB8) (protein)
chain: MEKVAFIGLGAMGYPMAGHLARRFPTLVWNRTFEKALRHQEEFGSEAVPLERVAEARVIFTCLPTTREVYEVAEALYPYLREGTYWVDATSGEPEASRRLAERLREKGVTYLDAPVSGGTSGAEAGTLTVMLGGPEEAVERVRPFLAYAKKVVHVGPVGAGHAVKAINNALLAVNLWAAGEGLLALVKQGVSAEKALEVINASSGRSNATENLIPQRVLTRAFPKTFALGLLVKDLGIAMGVLDGEKAPSPLLRLAREVYEMAKRELGPDADHVEALRLLERWGGVEIR
notes: PDB 2CVZ is from strain HB8 (ATCC 27634 / DSM 579)
[7]
  Km: 0.42 mM
